Values quoted from earlier work as cited in PMC2864607.
Read-outs that look alike come from different tables or passages of the source.

Legend:
[1] = target: His318 (UniProt position 320, VSSTWHWTGHN)
[2] = target: His322 (UniProt position 324, WHWTGHNVKHK)
[3] = target: His326 (UniProt position 328, GHNVKHKSAIV)
[4] = test system: His2 (position 2, ----GHG----); test: NMR; conditions: 25 °C; 0.02 M NaCl; Free model peptide
[5] = target: His451 (UniProt position 451, EASGCHYGVLT)
[6] = target: His203 (UniProt position 203, LTPHRHRVSAI)
[7] = target: His49 (UniProt position 49, PGIICHLDDPK)
[8] = target: His3 (position 3, ---KSHPE---); test: NMR; conditions: 25 °C, 0.02 M NaCl, Free model peptide
[9] = target: His3 (position 3, ---FKHLK---); test: NMR; conditions: 25 °C; 0.02 M NaCl; Free model peptide
[10] = Protein bound specifically to its cognate DNA recognition sequence

## E2 protein C-terminal DNA-binding domain (E2C) (Human papillomavirus type 16)
[1]; [10]
  pKa: 7.8
[1]; Unbound protein (no DNA)
  pKa: 6.7
[2]; [10]
  pKa: 6.3
[2]; Unbound protein (no DNA)
  pKa: 6.3
[3]; [10]
  pKa: 6.2
[3]; Unbound protein (no DNA)
  pKa: 6.2

## GHG model tripeptide (Gly-His-Gly) (synthetic)
[4]
  pKa: 6.68 ± 0.02

## Glucocorticoid receptor (DNA-binding domain) (Rattus norvegicus)
[5]; [10]
  pKa: 7.9
[5]; Unbound protein (no DNA)
  pKa: 5.9

## Large T antigen origin-binding domain (T-ag-obd) (Simian virus 40)
[6]; [10]
  pKa: >8
[6]; Unbound protein (no DNA)
  pKa: ~5

## TATA-binding protein (PwTBP) (Pyrococcus woesei)
[7]; [10]
  pKa: 7.2
[7]; Unbound protein (no DNA)
  pKa: 6.2

B1: KSHPE model peptide (myoglobin-derived) (synthetic (sequence from Physeter macrocephalus myoglobin)) (peptide)
chain: KSHPE
[8]; cis His-Pro isomer
  pKa: 6.23 ± 0.02
[8]; trans His-Pro isomer
  pKa: 6.69 ± 0.02

B2: FKHLK model peptide (myoglobin-derived) (synthetic (sequence from Physeter macrocephalus myoglobin)) (peptide)
chain: FKHLK
[9]
  pKa: 6.16 ± 0.02
